This is an account of results in patent US20230065562A1, “DUAL CONTROLS FOR THERAPEUTIC CELL ACTIVATION OR ELIMINATION” (Bellicum Pharmaceuticals, Inc., priority 2015, published 2023).

Series [1] relates to iCasp9M-transduced EBV-CTLs. The series can be described thus: CID-induced apoptosis / loss of GFP+ cells in iCasp9M-transduced EBV-CTLs. In kind it is cell-based, human. Conditions: 100 μM for 1 hour prior to adding CID. Here is the method:
CID (AP20187; ARIAD Pharmaceuticals) at indicated concentrations was added to transfected 293T cells or transduced CTLs. Adherent and nonadherent cells were harvested and washed with annexin binding buffer (BD Pharmingen, San Jose, Calif.). Cells were stained with annexin-V and 7-amino-actinomycin D (7-AAD) for 15 minutes according to the manufacturer's instructions (BD Pharmingen). Within 1 hour after staining, cells were analyzed by flow cytometry using CellQuest software (Becton Dickinson).
Inducible iCasp9M proficiency in CTLs was tested by monitoring loss of GFP-expressing cells after administration of CID; 91.3% (range, 89.5%-92.6% in 5 different donors) of GFP^+ cells were eliminated after a single 10-nM dose of CID. […] In all experiments, CTLs that survived CID treatment had low transgene expression with a 70% (range, 55%-82%) reduction in mean fluorescence intensity of GFP after CID. No further elimination of the surviving GFP^+ T cells could be obtained by an antigenic stimulation followed by a second 10-nM dose of CID. Therefore, the non-responding CTLs most likely expressed insufficient iCasp9M for functional activation by CID. To investigate the correlation between low levels of expression and CTL non-response to CID, CTLs were sorted for low, intermediate, and high expression of the linked marker gene GFP and mixed 1:1 with nontransduced CTLs from the same donor to allow for an accurate quantitation of the number of transduced T cells responding to CID-induced apoptosis.
The number of transduced T cells eliminated increased with the level of GFP transgene expression (see FIGS. 4A, 4B and 4C). To determine the correlation between transgene expression and function of iCasp9M, iCasp9M IRES.GFP-transduced EBV-CTL were selected for low (mean 21), intermediate (mean 80) and high (mean 189) GFP expression. Selected T-cells were incubated overnight with 10 nM CID and subsequently stained with annexin V and 7-AAD. Indicated are the percentages of annexin V+/7-AAD− and annexin V+/7-AAD+ T−. Selected T-cells were mixed 1:1 with non-transduced T-cells and incubated with 10 nM CID following antigenic stimulation. Indicated is the percentage of residual GFP-positive T-cells on day 7.
For GFPhigh-selected cells, 10 nM CID led to deletion of 99.1% (range, 98.7%-99.4%) of transduced cells. On the day of antigen stimulation, F-Casp9M.I.GFP-transduced CTLs were either untreated or treated with 10 nM CID. Seven days later, the response to CID was measured by flow cytometry for GFP. The percentage of transduced T cells was adjusted to 50% to allow for an accurate measurement of residual GFP^+ cells after CID treatment. The responses to CID in unselected (top row of and GFPhigh-selected CTLs (bottom row of was compared. The percentage of residual GFP^+ cells is indicated.
After overnight incubation with 10 nM CID, F-Casp9M.I.GFPhigh-transduced T cells had apoptotic characteristics such as cell shrinkage and fragmentation by microscopic evaluation. […] A representative example of 3 separate experiments is shown.

For series [2], the system named is transduced T cells (human PBMCs). The series can be described thus: IL-6 ELISA as indicator of MC activity in transduced T cells. In kind it is cell-based. Conditions: pBP1440, 24 hours. A general note: In an ELISA, binding on a coated surface is turned into a signal by an enzyme label.
Series [3] concerns Raji-GFP cells. The series can be described thus: Raji-GFP coculture with CD19 CAR-T cells (flow cytometry). In kind it is cell-based, human. Conditions: 2 nM, E:T 1:5, seven days. On the technique in general: Flow cytometry measures light scatter and fluorescence of single cells or particles in a stream.
Procedure: After seven days of incubation the live cells were analyzed for the proportion of GFP labeled tumor cells (left) and for the proportion of total T cells (CD3^+, right) and transduced CAR-T cells (CD34, not shown).
Raji cells (ATCC) labeled by stable expression of Green Fluorescent Protein (Raji-GFP) are a Burkitt's lymphoma cell line that express CD19 on the cell surface and are a target for an anti-CD19 CAR. 50000 Raji-GFP cells were seeded on a 24 well plate with 10000 CAR-T cells, a 1:5 E:T ratio. Media supernatant was taken at 48 hours for determination of cytokine release by activated CAR-T cells. The degree of tumor killing was determined at 7 days and 14 days by flow cytometry (Galeos, Beckman-Coulter) by the proportion of GFP labeled tumor cells and CD3 labeled T cells.
Series [4] has as its target FRBL (Homo sapiens, UniProt P42345+P62942, T2098L). Nature of the series: Rapalog binding to mutant FRB (FRBL/KLW) versus wild-type FRB.
Series [5] concerns NF-κB. Nature of the series: NF-κB SeAP reporter assay of inducible MyD88/CD40 activity. In kind it is cell-based. (A reporter such as luciferase makes a cellular process visible.)
Procedure: 293T cells were transfected with 1 μg of reporter construct NF-κB SeAP and 4 μg of the iMC+CARζ construct pBP0774 or the MC-rap-CAR construct pBP1440 using the GeneJuice protocol (Novagen). […] After 24 hours of further incubation SeAP activity was determined from cell supernatants.
HEK 293T cells (1.5×10^5) were seeded on a 100-mm tissue culture dish in 10 mL DMEM4500, supplemented with glutamine, penicillin/streptomycin and 10% fetal calf serum. After 16-30 hours incubation, cells were transfected using Novagen's GeneJuice® protocol. Briefly, for each transfection, 0.5 mL OptiMEM was pipetted into a 1.5-mL microcentrifuge tube and 15 μL GeneJuice reagent added followed by 5 sec. vortexing. Samples were rested 5 minutes to settle the GeneJuice suspension. DNA (5 μg total) was added to each tube and mixed by pipetting up and down four times. Samples were allowed to rest for 5 minutes for GeneJuice-DNA complex formation and the suspension added dropwise to one dish of 293T cells. A typical transfection contains 1 μg NFkB-SEAP (5), 4 μg iMC+CARζ(pBP0774) or 4 μg MC-Rap-CAR (pBP1440) (1).
24 hours following transfection (4.1), 293T cells were split to 96-well plates and incubated with dilutions of dimerizing drugs. Briefly, 100 μL media was added to each well of a 96-well flat-bottom plate. Drugs were diluted in tubes to a concentration 4× the top concentration in the gradient to be place on the plate. […] 100 μL from each drug-containing well was then transferred to the adjacent well and the cycle repeated 10 times to produce a serial two-fold step gradient. The last wells were untreated and serve as a control for basal reporter activity. Transfected 293 cells were then trypsinized, washed with complete media, suspended in media and 100 μL aliquoted to each well containing drug (or no drug). Cells were incubated 24 hours.
24 hours after drug stimulation, 96-well plates were wrapped to prevent evaporation and incubated at 65° C. for 2 hours to inactivate endogenous and serum phosphatases while the heat-stable SeAP reporter remains (3, 12, 14). 100 μL samples from each well were loaded into individual wells of a 96-well assay plate with black sides. Samples were incubated with 0.5 mM 4-methylumbelliferyl phosphate (4-MUP) in 0.5 M diethanolamine at pH 10.0 for 4 to 16 hours. Phosphatase activity was measured by fluorescence with excitation at 355 nm and emission at 460 nm. Data was transferred to a Microsoft Excel spreadsheet for tabulation and graphed with GraphPad Prism.
Series [6] deals with HPAC PSCA+ tumor cells. The series can be described thus: T cell anti-tumor assay with HPAC-RFP cells (IncuCyte, ELISA). The series is classed as cell-based, human. Conditions: 2 nM, E:T 1:30. Here is the method: PBMCs from donor 920 were activated and co-transduced with GFP-Ffluc and iMC+CARζ-T (189), i9+CARζ+MC (873), or FwtFRBC9/MC.FvFv (1308)-encoding vectors. […] (A & B) Two days post-seeding, culture supernatants were analyzed for IL-2, IL-6, and IFN-γ production by ELISA. […] Numbers of HPAC-RFP and T cell-GFP at the E:T 1:2 ratio was analyzed using the basic analyzer software for the IncuCyte at day 7 (Ci) and day 8 with 0 nM suicide drug (Cii) and 10 nM suicide drug (Ciii). Similar analysis was also performed at the 1:5 E:T ratio (D). (Note: the y-axis in Ci and Di are at log-scale).
The HPAC PSCA^+ tumor cells were stably labeled with nuclear-localized RFP protein using the NucLight™ Red Lentivirus Reagent (Essen Bioscience, 4625). To set up the coculture, 4000 HPAC-RFP cells were seeded per well of 96-well plates in 100 μl of CTL medium without IL-2 for at least 4 hours to allow tumor cells to adhere. After transduction with the appropriate retrovirus and allowed to rest for at least 7 days in culture, T were seeded according to various E:T ratios to the HPAC-RFP-containing 96-well plates. […] Each plate was set up in duplicates, one plate to monitor with the IncuCyte cell imaging system and one plate for supernatant collection for ELISA assay on day 2. The plates were centrifuged for 5 min at 400×g and placed inside the IncuCyte (Essen Bioscience, Dual Color Model 4459) to monitor red fluorescence (and green fluorescence if T cells were labeled with GFP-Ffluc) every 2-3 hours for a total of 7 days at 10× objective. Image analysis was performed using the “HPAC-RFP_TcellsGFP_10×_MLD” processing definition. On day 7, HPAC-RFP cells were analyzed using the “Red Object Count (1/well)” metric. […] On day 8, Tcell-GFP cells were analyzed using the “Total Green Object Integrated Intensity” metric. Each condition was performed at least in duplicates and each well was imaged at 4 different locations.

Series [7] relates to transduced T cells. Nature of the series: T cell caspase assay (IncuCyte, caspase 3/7 green reagent). The series is classed as cell-based, human. Here is the method:
To enable detection of apoptosis using the IncuCyte instrument, 2 μM of IncuCyte™ Kinetic Caspase-3/7 Apoptosis reagent (Essen Bioscience, 4440) were add to each well to reach a total volume of 200 μl. The plates were centrifuged for 5 min at 400×g and placed inside the IncuCyte (Dual Color Model 4459) to monitor green fluorescence every 2-3 hours for a total of 48 hours at 10× objective. Image analysis was performed using the “Tcells_caspreagent_phase_green_10×_MLD” processing definition. The “Total Green Object Integrated Intensity” metric is used to quantify caspase activation. Each condition was performed in duplicates and each well was imaged at 4 different locations.
To enable detection of apoptosis using the IncuCyte instrument, 2 μM of IncuCyte™ Kinetic Caspase-3/7 Apoptosis reagent (Essen Bioscience, 4440) was added to each well to reach a total volume of 200 μl. The plates were centrifuged for 5 min at 400×g and placed inside the IncuCyte (Dual Color Model 4459) to monitor green fluorescence every 2-3 hours for a total of 48 hours at 10× objective. Image analysis was performed using the “Tcells_caspreagent_phase_green_10×_MLD” processing definition. The “Total Green Object Integrated Intensity” metric and the “Phase Object Confluence (Percent)” were used to quantify caspase activation. Each condition was performed in duplicate and each well was imaged at 4 different locations.

Series [8] concerns primary T cells. Nature of the series: AP1903-dependent cytotoxicity in primary T cells transduced with iCasp9 variants. In kind it is cell-based, human. Conditions: for killing of target T cells within 10 days: AP1903 at day 0 and day 4; for sensitivity to AP1903 in primary T cells: mostly single copy, 24-hour assay. Here is the method: The effects of various caspase polypeptides at mostly single copy in primary T cells was assayed. This may reflect more accurately how these suicide genes will be used therapeutically.
Primary T cells from healthy donors (n=6) were transduced with retrovirus encoding mutant or wild-type iCasp9 or iCasp9-D330A, and the ΔCD19 cell surface marker. Following transduction, iCasp9-transduced T cells were purified using CD19-microbeads and a magnetic column.

Series [9] has as its system HEK293T/16 cells. The series can be described thus: Secreted alkaline phosphatase (SEAP)-based surrogate killing assay of iCasp9 mutants. The series is classed as cell-based, human. Conditions: for Basal Activity (relative to wild type/unmodified Caspase-9): SEAP assay without AP1903; for basal activity: relative SEAP activity Units: no AP1903.

Where a chain is given by its changes, count along the chain named. Numbers in names are those of the source. Entries after “also recorded” stand apart in the source; their conditions may differ. Where a SMILES comes first, the peptide text is derived from it. Where no end group is shown, it is not given here. The star is where a group is joined. Cbz = O=C(OCc1ccccc1)*; CH2F = FC* Some results are limits rather than exact numbers.

Chain of FRBL (P42345 2012-2144 T2098L limits assumed): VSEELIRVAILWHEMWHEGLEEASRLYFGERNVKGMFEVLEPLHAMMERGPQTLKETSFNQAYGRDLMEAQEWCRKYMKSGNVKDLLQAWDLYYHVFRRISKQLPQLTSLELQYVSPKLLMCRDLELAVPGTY
Chain of FRBL (P62942 2-108 limits assumed): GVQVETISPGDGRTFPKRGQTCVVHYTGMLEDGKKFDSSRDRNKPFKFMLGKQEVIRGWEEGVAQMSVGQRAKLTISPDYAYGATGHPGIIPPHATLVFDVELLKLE

`COC(=O)C[C@H](NC(=O)[C@H](C)NC(=O)[C@@H](NC(=O)OCc1ccccc1)C(C)C)C(=O)CF` [zVAD-fmk] (Cbz-Val-Ala-Asp(OMe)-CH2F): in series [1], the “effect on CID-induced apoptosis” value was “inhibited”.
The term EC50 denotes the concentration giving half of the maximal effect. Take C7-isobutyloxyrapamycin: the “MC activity (secreted IL-6) in MC-rap-T cells” value in series [2] is “strongly responsive”. For the same molecule, the “CAR-T cells with FwtFRBC9/MC.FvFv” value in series [3] is recorded as “cause cell death”. In addition, in series [4], the “affinity for mutant FRB domain KLW” value is reported as “subnanomolar affinity” and the “binds FRBL at concentrations lower than wild-type FRB in mTOR” value came to 20 fold. The “EC50 / concentration stimulating NF-κB reporter activity via MC-Rap” value in series [5] (MC-rap-CAR construct pBP1440) was “subnanomolar”. Moreover, the EC50 in [5] (iRMC (KLW, wild-type FKBP12, MyD88, CD40), read-out: EC50, NF-κB activity via iRMC) is less than 1 nM. For the same molecule, the “tumor cell control by MC-rap containing CAR-T cells” value in series [6] is reported as “able to control tumor cells as effectively as rimiducid stimulated iMC”. In series [7] (over 100 fold above the level used to activate MC-rap), the “activation of apoptosis at high concentrations” value was “insufficient to activate apoptosis”.
For Q-LEHD-OPh (QLEHD-OPh), the “level not toxic to the T cells” value in series [7] is more than 100 µM. Also, the “concentration efficiently inhibiting caspase-9 activation by iC9 and iRC9” value in series [7] (20 nM of the respective activating ligands) is not above 4 µM.

B1: F404Y: modified iCasp9, F404Y (protein)
chain: VDGFGDVGALESLRGNADLAYILSMEPCGHCLIINNVNFCRESGLRTRTGSNIDCEKLRRRFSSLHFMVEVKGDLTAKKMVLALLELARQDHGALDCCVVVILSHGCQASHLQFPGAVYGTDGCPVSVEKIVNIFNGTSCPSLGGKPKLFFIQACGGEQKDHGFEVASTSPEDESPGSNPEPDATPFQEGLRTFDQLDAISSLPTPSDIFVSYSTFPGFVSWRDPKSGSWYVETLDDIFEQWAHSEDLQSLLLRVANAVSVKGIYKQMPGCYNFLRKKLFFKTSASRA
As for B1, the “killing of target T cells within 10 days” value in [8] was “indistinguishable from wild type”. In addition, the “Basal Activity (relative to wild type/unmodified Caspase-9)” value in series [9] is on record as “lowered basal activity; also recorded: Decreased”.

B2: S144D: modified iCasp9, S144D (protein)
chain: B1 chain with S12D, Y272F
As for B2, the “Basal Activity (relative to wild type/unmodified Caspase-9)” value in series [9] is recorded as “Decreased”.

B3: S196D: modified iCasp9, S196D (protein)
chain: B1 chain with S64D, Y272F
In the case of B3, the “Basal Activity (relative to wild type/unmodified Caspase-9)” value in series [9] is listed as “Decreased”.

B4: S144A: modified iCasp9, S144A (protein)
chain: B1 chain with S12A, Y272F
For B4, the “Basal Activity (relative to wild type/unmodified Caspase-9)” value in [9] was “Decreased”.

B5: N405Q: modified iCasp9, N405Q (SEQ ID NO: 26) (protein)
chain: GFGDVGALESLRGNADLAYILSMEPCGHCLIINNVNFCRESGLRTRTGSNIDCEKLRRRFSSLHFMVEVKGDLTAKKMVLALLELARQDHGALDCCVVVILSHGCQASHLQFPGAVYGTDGCPVSVEKIVNIFNGTSCPSLGGKPKLFFIQACGGEQKDHGFEVASTSPEDESPGSNPEPDATPFQEGLRTFDQLDAISSLPTPSDIFVSYSTFPGFVSWRDPKSGSWYVETLDDIFEQWAHSEDLQSLLLRVANAVSVKGIYKQMPGCFQFLRKKLFFKTS
On to B5, for which, in [8], the “killing of target T cells within 10 days” value was “indistinguishable from wild type” and the “sensitivity to AP1903 in primary T cells” value is given as “less sensitive to AP1903”. The “basal activity: relative SEAP activity Units” value in series [9] (1 μg iCasp9 per million cells) was 179081 Units. In [9] (2 μg iCasp9 per million cells), the “basal activity: relative SEAP activity Units” value worked out at 175529 Units. In addition, the “Basal Activity (relative to wild type/unmodified Caspase-9)” value in series [9] is on record as “lower basal signaling; also recorded: lowered basal activity; also recorded: consistently lower basal activity; also recorded: lower basal activity than D330A; also recorded: very low basal activity; also recorded: Decreased”.

B6: D330A: modified iCasp9, D330A (SEQ ID NO: 24) (protein)
chain: B5 chain with D196A, Q271N
As for B6, in series [8] (AP1903 0-100 nM, 24 hours, 6 donors), the “IC50 of AP1903 in transduced T cells versus wild-type iCasp9” value is given as “significantly lower”. For the same molecule, the “sensitivity to AP1903 in primary T cells” value in series [8] is “more sensitive to AP1903 at low titers; also recorded: more sensitive to AP1903 than the wild type”. Also, the “basal activity: relative SEAP activity Units” value in series [9] (1 μg iCasp9 per million cells) is given as 148928 Units; in series [9] (2 μg iCasp9 per million cells), 136863 Units. The “Basal Activity (relative to wild type/unmodified Caspase-9)” value in [9] was “lowered basal signaling; also recorded: lowered basal activity; also recorded: less basal activity than wild type Caspase-9; also recorded: Decreased”.
